Assay results as given in paper PMC3905869.

How the values were obtained:
VirB delta C [1] = molecular target: T1, VirB delta C (Shigella flexneri, UniProt P0A247 1-250); test: fluorescence anisotropy
T1 sequence: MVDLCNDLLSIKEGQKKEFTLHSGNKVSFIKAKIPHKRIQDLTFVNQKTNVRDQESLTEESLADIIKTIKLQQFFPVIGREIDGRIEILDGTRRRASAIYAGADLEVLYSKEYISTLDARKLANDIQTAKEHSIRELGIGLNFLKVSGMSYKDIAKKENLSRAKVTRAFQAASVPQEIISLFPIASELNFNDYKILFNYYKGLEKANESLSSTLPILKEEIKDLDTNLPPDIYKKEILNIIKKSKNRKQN

VirB delta N [2] = molecular target: T2, VirB delta N (Shigella flexneri, UniProt P0A247 129-309); test: fluorescence anisotropy
T2 sequence: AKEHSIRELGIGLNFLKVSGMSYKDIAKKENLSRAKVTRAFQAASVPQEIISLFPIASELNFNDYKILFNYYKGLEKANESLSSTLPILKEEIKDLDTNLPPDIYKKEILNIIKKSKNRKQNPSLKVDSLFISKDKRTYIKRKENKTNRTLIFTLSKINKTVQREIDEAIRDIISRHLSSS

VirB core (HTH domain) = molecular target: T3, VirB core (HTH domain) (Shigella flexneri, UniProt P0A247 129-250); test: fluorescence anisotropy
T3 sequence: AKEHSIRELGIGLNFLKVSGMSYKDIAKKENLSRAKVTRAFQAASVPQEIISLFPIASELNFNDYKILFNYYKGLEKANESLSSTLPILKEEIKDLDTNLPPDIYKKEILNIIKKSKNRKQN

VirB FL [3] = molecular target: T4, VirB FL (Shigella flexneri, UniProt P0A247 1-309); test: fluorescence anisotropy
T4 sequence: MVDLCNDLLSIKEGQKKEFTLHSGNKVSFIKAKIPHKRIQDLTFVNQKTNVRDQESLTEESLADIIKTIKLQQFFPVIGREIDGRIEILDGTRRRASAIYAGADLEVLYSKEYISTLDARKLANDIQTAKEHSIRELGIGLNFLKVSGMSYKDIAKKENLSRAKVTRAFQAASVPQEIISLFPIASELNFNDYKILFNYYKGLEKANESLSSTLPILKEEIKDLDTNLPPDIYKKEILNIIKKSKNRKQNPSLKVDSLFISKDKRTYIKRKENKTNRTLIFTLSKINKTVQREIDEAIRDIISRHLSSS

VirB delta C [4] = molecular target: T1, VirB delta C; test: competition
VirB delta N [5] = molecular target: T2, VirB delta N; test: EMSA with self-competition
VirB FL [6] = molecular target: T4, VirB FL; test: EMSA with self-competition
VirB delta C [7] = molecular target: T1, VirB delta C; test: EMSA with self-competition

B1: FAM-icsB-wt-50bp (dsDNA)
DNA 1: CTCGTTTCATCATGAAATCCCACAAGATAAAGTGCCTGATGTATCAGGCT
DNA 2: AGCCTGATACATCAGGCACTTTATCTTGTGGGATTTCATGATGAAACGAG
Kd (VirB delta C [1]): 139 ± 15 nM
Kd (VirB delta N [2]): 12 ± 0.3 nM
Kd (VirB core (HTH domain)): 16 ± 3 nM
Kd (VirB FL [3]): 11 ± 0.3 nM

B2: icsB-mut (dsDNA)
DNA 1: AAACTCGTTTCATCGCTGGGCCCCAC
DNA 2: GTGGGGCCCAGCGATGAAACGAGTTT
binding result (VirB delta C [4]): no binding

B3: icsB-wt (dsDNA)
DNA 1: AAACTCGTTTCATCATGAAATCCCAC
DNA 2: GTGGGATTTCATGATGAAACGAGTTT
binding result (VirB delta N [5]): binds
binding result (VirB FL [6]): binds
binding result (VirB delta C [7]): binds
